According to US20230312758A1, “BISPECIFIC ANTIBODY AGAINST CD3 AND CD20 IN COMBINATION THERAPY FOR TREATING FOLLICULAR LYMPHOMA” (GENMAB A/S, priority 2020, published 2023):

Columns and labels:
follicular lymphoma = details: double-refractory cases; cited from earlier work
T cells = experiment: T-cell activation with immobilized anti-CD3 in presence or absence of lenalidomide; assay type: cell-based; details: 5 or 50 μM lenalidomide, CD3 crosslinking, 3 days; compared to no lenalidomide
Procedure: T cells were pre-incubated with assay medium or lenalidomide in the absence or presence of CD3 crosslinking by immobilized anti-CD3 for 3 days (as indicated on the x-axes), after which upregulation of CD69, CD25, PD-1 and LAMP-1 on CD4^+ and CD8^+ T cells was determined by flow cytometry. Data shown are geomean fluorescence intensities (FI) for four donors (each circle represents one condition for one donor). Pre-incubation conditions are shown on the x-axis.
(§1) This experiment was performed to determine the impact of lenalidomide on Duobody-CD3xCD20-induced T-cell activation and T-cell-mediated cytotoxicity.
(§2) Briefly, T cells were activated with immobilized anti-CD3 in the presence (5 or 50 μM) or absence of lenalidomide for 3 days. […] T cells that were activated in the presence or absence of lenalidomide were subsequently tested for their cytotoxic capacity in response to epcoritamab.

CD20 = molecular target: T1, CD20 (Homo sapiens, UniProt P11836); details: rituximab versus IgG1-CD20; bind to a different epitope; cited from earlier work
T1 sequence (P11836 1-297): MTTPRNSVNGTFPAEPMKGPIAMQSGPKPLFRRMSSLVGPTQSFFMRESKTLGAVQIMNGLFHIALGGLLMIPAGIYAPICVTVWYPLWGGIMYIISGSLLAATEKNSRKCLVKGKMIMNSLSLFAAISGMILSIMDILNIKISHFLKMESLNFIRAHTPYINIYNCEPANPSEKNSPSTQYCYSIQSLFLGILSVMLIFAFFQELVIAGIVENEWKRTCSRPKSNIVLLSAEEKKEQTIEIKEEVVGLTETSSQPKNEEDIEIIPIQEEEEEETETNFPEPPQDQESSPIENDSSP

[1] = tested on: primary DLBCL and follicular lymphoma patient biopsies; details: cited from earlier work
[2] = tested on: CD20-expressing Daudi cells; experiment: DuoBody-CD3xCD20-induced T-cell-mediated cytotoxicity assay; assay type: cell-based; details: T cells pre-treated with lenalidomide and anti-CD3; E:T ratio 2:1
Procedure: T cells were incubated with (5 or 50 μM) or without lenalidomide in the absence or presence of immobilized anti-CD3 for 3 days. T cells were then used in a cytotoxicity assay with DuoBody-CD3xCD20 or DuoBody-CD3xctrl (containing a CD3 arm and a non-binding control arm) and CD20-expressing Daudi cells as target cells (E:T ratio 2:1). Data shown are average percentages cytotoxicity ±SD of duplicates, normalized to medium control (no antibody, no lenalidomide).
as §1, §2

[3] = tested on: CD20-expressing Raji-luc tumor cells; details: NOD-SCID mice injected with Raji-luc tumor cells and PBMCs; even in presence of excess IgG1-RTX-FEAR; cited from earlier work
R/R B-NHL = experiment: epcoritamab monotherapy clinical trial (NCT03625037); assay type: in vivo, human; details: R/R B-NHL patients, preliminary data
Source text: Epcoritamab as monotherapy is currently in a clinical trial for the treatment of R/R B-NHL (ClinicalTrials.gov Identifier: NCT03625037).

R/R follicular lymphoma = experiment: Phase 1b study of epcoritamab with rituximab and lenalidomide (R^2); assay type: in vivo, human; details: preliminary data
Procedure: The trial is conducted in 2 parts: dose escalation (Part 1) and expansion (Part 2). Subjects participate in only one part. Both parts consist of a screening period, a treatment period, a safety follow-up period, and a survival follow-up period.
The Part 1 dose escalation assesses the initial safety, tolerability, and clinical activity of epcoritamab in combination with R^2. Epcoritamab is initially be administered in combination with R^2 in a 3-subject cohort. DLTs are evaluated during the first 28 days. […]
In Part 2, epcoritamab is administered (with the dosing regimen determined in the dose escalation part) in combination with R^2. […]
Disease response is assessed according to both Lugano criteria (described in Cheson et al., J Clin Oncol 2014; 32:3059-68 (see, in particular, Table 3 in Cheson et al., 2014) and LYRIC (Table 8) to inform decisions on continuation of treatment. […]
Safety is assessed by measuring adverse events, laboratory test results, ECGs, vital sign measurements, physical examination findings, and ECOG performance status. Also assessed are immune effector cell-associated neurotoxicity syndrome (e.g., as described by Lee et al., Biol BloodMarrow Transplant 2019; 25:625-638), constitutional symptoms (B symptoms), tumor flare reaction, and survival. […]

Question: With `CC[C@H](Nc1ncnc2[nH]cnc12)c1nc2cccc(F)c2c(=O)n1-c1ccccc1` [idelalisib] as the compound, how does the “1-year PFS” value (follicular lymphoma) read?
Answer: 43%

Question: What about the toxicities (follicular lymphoma) of the same compound?
Answer: several toxicities leading to treatment discontinuation

Question: Which “T-cell activation (CD69, CD25 upregulation, release of granzyme B and IFNγ)” value (T cells) does the source give for `Nc1cccc2c1CN(C1CCC(=O)NC1=O)C2=O` (centres unmarked) [lenalidomide, 3-(4-Amino-1-oxo-1,3-dihydro-2H-isoindol-2-yl) piperidine-2,6-dione] here?
Answer: increased T-cell activation

Question: Which “competition for CD20 binding” value (CD20) does the source give for “IgG1-CD20: antibody of which the CD20 arm of epcoritamab is derived” here?
Answer: compete for CD20 binding

Question: With “epcoritamab: IgG1 bispecific CD3xCD20 antibody; heavy/light chain pairs SEQ ID NOs: 24/25 and 26/27; CAS 2134641-34-0” as the compound, how does the tumor cell kill ([1]; biopsy taken 2 weeks after administering the anti-CD20 antibody) read?
Answer: up to 40%

Question: What about the T-cell-mediated cytotoxicity [1] of the same compound?
Answer: induced T-cell-mediated cytotoxicity

Question: What about the “cytotoxicity (dose response)” value [2] of the same compound?
Answer: Higher maximum percent cytotoxicity and higher activity at lower epcoritamab concentrations

Question: What about the tumor growth [3] of the same compound?
Answer: effectively reduce tumor growth

Question: What about the tolerated dose (R/R B-NHL; including 60 mg) of the same compound?
Answer: at least 48 mg

Question: What about the dose-limiting toxicities (R/R B-NHL) of the same compound?
Answer: no dose-limiting toxicities reported

Question: What about the “incidence of CRS compared with single-agent epcoritamab” value (R/R follicular lymphoma) of the same compound?
Answer: relatively lower incidence of CRS with the combination
